# Experimental data reported in US12497593B2, “Generation of hematopoietic progenitor cells from human pluripotent stem cells” (Wisconsin Alumni Research Foundation, priority 2018, dated 2025).
# Test system: human pluripotent stem cells provided at high cell density
# Experiment: Hematopoietic cell formation in high cell density differentiation culture
# Format: cell-based
# Settings: with 50 ng/ml BMP4
# Procedure: FIGS. 1A-1F concern hematopoietic cell differentiation in accord with the invention. […] Cells in high cell density methods of the experiments depicted in this figure were plated at 1.1×10^5 cells/cm^2. Cells in low cell density methods of the experiments depicted in this figure were plated at 1.8×10^4 cells/cm^2. The photographs of FIG. 1B show cell morphology of cells of each culture at day 10. […] The hematopoietic cells could be cryopreserved at day 10 (90% FBS+10% DMSO) and hemangioblasts can be cryopreserved at day 6.
# FIG. 2A-2D show Notch and YAP signaling in the low and high density cell cultures. FIGS. 2A-2B show immunostaining of YAP and NICD1 (Notch intra-cellular domain). […] Cells cultured at high density were treated with or without 10 μM DAPT (a Notch inhibitor) from day 2-10.
# FIGS. 3A-3E show BMP4 signaling in the low and high density cell cultures. […] Cells were cultured at high density with or without 50 ng/ml BMP4. […] Cells were cultured at low density with or without LDN (a BMP signaling inhibitor).
# Cell-cell contact regulates arterial endothelial cells and hemangioblast cell fate determination—Endothelial-to-hematopoietic stem cell transition occurs in aorta-gonad-mesonephros region. We therefore investigated whether human pluripotent stem cell-derived arterial endothelial cells can be reprogrammed into hematopoietic stem cells. […]
molecule,measurement,value
"BMP4: Bone Morphogenetic Protein 4, added at 50 ng/ml to high density culture (protein, UniProt P12644 293-408, looked up) Bone morphogenetic protein 4: SPKHHSQRARKKNKNCRRHSLYVDFSDVGWNDWIVAPPGYQAFYCHGDCPFPLADHLNSTNHAIVQTLVNSVNSSIPKACCVPTELSAISMLYLDEYDKVVLKNYQEMVVEGCGCR","hematopoiesis (total hematopoietic cell number, cell morphology at day 10)",promoted hematopoiesis
